± gives the uncertainty stated by the source.
Assay: amyloid nucleation score (Sup35N fusion, yeast selection) (log enrichment); library NNK2; higher = more nucleation; inactive = no reads after selection
How it was run: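 In psi-negative yeast, Sup35N fusions carrying peptides of 20 random codons were induced with 100 μM copper sulfate for 24 hours. The cells then grew 7 days at 30°C on medium lacking adenine and uracil, and plasmid inserts from input and output were Illumina-sequenced, excluding sequences with under 100 input reads. Nucleation score is the DiMSum log enrichment of output over input reads, centred on the mode score of non-aggregating sequences.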

**Q.** Which amyloid nucleation score does the source give for VSLSLC here?
**A.** -0.288 ± 0.5

**Q.** Which amyloid nucleation score does the source give for HNRISQRRLRLGLRGHWSRK here?
**A.** 0.691 ± 0.53

**Q.** With VTRHLVVLNKYKWLGRLSTI as the substance, how does the amyloid nucleation score read?
**A.** -1.04 ± 0.76

**Q.** Which amyloid nucleation score does the source give for CDSRCRYLAEYRFI here?
**A.** 0.151 ± 0.27

**Q.** Which amyloid nucleation score does the source give for VVFNFFCPNHGAVTMFSCFH here?
**A.** 8.838 ± 0.03

**Q.** Which amyloid nucleation score does the source give for FRGTCYMAIVDYLCNTFEGP here?
**A.** 1.37 ± 0.11

**Q.** Which amyloid nucleation score does the source give for SHWEMRQVGSVVVGIKGKGN here?
**A.** 0.972 ± 0.67

**Q.** Which amyloid nucleation score does the source give for REFDRNFTPYPSQQELPIWW here?
**A.** 0.827 ± 0.39

**Q.** Which amyloid nucleation score does the source give for TNPSSKPAWVTSR here?
**A.** 0.007 ± 0.79

**Q.** Which amyloid nucleation score does the source give for SMFCVPFMINLVLYVMGEVW here?
**A.** 0.288 ± 0.64

**Q.** For RVRGWLSMSWGCGMGLPASS, which amyloid nucleation score is on record?
**A.** 7.03 ± 0.074

**Q.** For CYRPDRPIITIDLVCVRFS, which amyloid nucleation score is on record?
**A.** 1.9 ± 0.2

**Q.** For IEGYYGASRVRGMSMGLLWV, which amyloid nucleation score is on record?
**A.** -0.17 ± 0.79

**Q.** For TVSRLYEYWLLRMCIY, which amyloid nucleation score is on record?
**A.** -0.413 ± 1

**Q.** Which amyloid nucleation score does the source give for LIRQMYMGRFYAVNRENH here?
**A.** -0.743 ± 0.79

**Q.** With WGCSHKLTCVGARHLVLD as the substance, how does the amyloid nucleation score read?
**A.** 2.46 ± 0.17

**Q.** With LDKAIHSWGVLDWAVKQDNA as the substance, how does the amyloid nucleation score read?
**A.** 0.293 ± 0.26

**Q.** Which amyloid nucleation score does the source give for YKSDYSKLLCWKNYKFWLVC here?
**A.** -1.07 ± 0.37

**Q.** Which amyloid nucleation score does the source give for VPICLSS here?
**A.** inactive

**Q.** Which amyloid nucleation score does the source give for DTSVMCFGTYTWLFELFFQW here?
**A.** -0.334 ± 0.45

**Q.** With SWELFSGAWTLGNRYPFRHK as the substance, how does the amyloid nucleation score read?
**A.** -0.079 ± 0.55

**Q.** Which amyloid nucleation score does the source give for PQLSKVLGWNYRCVNLSIW here?
**A.** 4.93 ± 0.086

**Q.** For KCSTVYASGFWLPWTVVPGR, which amyloid nucleation score is on record?
**A.** 0.418 ± 0.26

**Q.** For WDRTTDSSFQVRKYQSENFL, which amyloid nucleation score is on record?
**A.** 0.092 ± 1.1

**Q.** Which amyloid nucleation score does the source give for CCYQVSYCIVSVIDSVEYGP here?
**A.** 6.991 ± 0.033

**Q.** For IPIIGITNEVPMSVRFPSIF, which amyloid nucleation score is on record?
**A.** -1.07 ± 0.55

**Q.** Which amyloid nucleation score does the source give for IALKFFH here?
**A.** 0.882 ± 0.3

**Q.** Which amyloid nucleation score does the source give for SCLTNGY here?
**A.** -0.154 ± 0.38

**Q.** For GNRDF, which amyloid nucleation score is on record?
**A.** inactive

**Q.** For ISSICFRNRDNFFLRAFGIG, which amyloid nucleation score is on record?
**A.** inactive

**Q.** With RLTVRWAYMSLLTVGQGGIM as the substance, how does the amyloid nucleation score read?
**A.** 0.21 ± 1

**Q.** Which amyloid nucleation score does the source give for GNYNLALDLPLTFERFRQSH here?
**A.** -0.736 ± 0.44

**Q.** For MGDSTIEVTLPVG, which amyloid nucleation score is on record?
**A.** 0.987 ± 0.39

**Q.** With VEVKNRYRVRKLLCGLLRIR as the substance, how does the amyloid nucleation score read?
**A.** 0.799 ± 0.74

**Q.** For TPENFHLR, which amyloid nucleation score is on record?
**A.** inactive

**Q.** For SHTDYHRFAWMF, which amyloid nucleation score is on record?
**A.** -1.74 ± 0.53

**Q.** For IGSRS, which amyloid nucleation score is on record?
**A.** -1.25 ± 0.48

**Q.** For FYTDPALISHTVEIILVLLI, which amyloid nucleation score is on record?
**A.** inactive

**Q.** With LLLSRGFMGVSKRSMVYRRV as the substance, how does the amyloid nucleation score read?
**A.** inactive

**Q.** With LCLIGRYRMSERALRLRWLV as the substance, how does the amyloid nucleation score read?
**A.** 2.54 ± 0.11

**Q.** For SSASALMKLVMMY, which amyloid nucleation score is on record?
**A.** -0.003 ± 0.22

**Q.** With MKSLLLLCCYSELAYLCGML as the substance, how does the amyloid nucleation score read?
**A.** -1.34 ± 0.4

**Q.** With WLFDGGFSVKWPDRVSLARV as the substance, how does the amyloid nucleation score read?
**A.** -1.14 ± 1

**Q.** Which amyloid nucleation score does the source give for GGPCDRGTFMMCDPWSFSLL here?
**A.** 0.513 ± 0.39

**Q.** With NVFLS as the substance, how does the amyloid nucleation score read?
**A.** inactive

**Q.** With MCGNWLD as the substance, how does the amyloid nucleation score read?
**A.** 3.05 ± 0.055

**Q.** With WFYTYSLFGFVVNIVFTYPL as the substance, how does the amyloid nucleation score read?
**A.** -0.176 ± 0.36

**Q.** For QARLLSYLGDLVLASSWKVL, which amyloid nucleation score is on record?
**A.** -0.891 ± 0.64

**Q.** For AESWVNYRGRDV, which amyloid nucleation score is on record?
**A.** 0.472 ± 0.8

**Q.** Which amyloid nucleation score does the source give for TWTRLALFMLIPSG here?
**A.** 0.464 ± 0.35

**Q.** With QCSIVWR as the substance, how does the amyloid nucleation score read?
**A.** 6.61 ± 0.076

**Q.** For NLTFACVVYANWVILTHGAR, which amyloid nucleation score is on record?
**A.** 6.336 ± 0.061

**Q.** For FFNAR, which amyloid nucleation score is on record?
**A.** -0.951 ± 0.62

**Q.** For VLFCMSYKSARLEL, which amyloid nucleation score is on record?
**A.** 6.08 ± 0.07

**Q.** For YITAGFKESTSGQRQLRSWL, which amyloid nucleation score is on record?
**A.** 2.08 ± 0.083

**Q.** With YCYKSCCRDKLY as the substance, how does the amyloid nucleation score read?
**A.** -0.072 ± 1.1

**Q.** With CSRRYSLRL as the substance, how does the amyloid nucleation score read?
**A.** -0.319 ± 0.54

**Q.** For TKTTWSDPGG, which amyloid nucleation score is on record?
**A.** 0.922 ± 0.43

**Q.** For SNYSTGHGAGMEDRRLEMGG, which amyloid nucleation score is on record?
**A.** 0.717 ± 0.49

**Q.** With LTGCGDFSLLSIYFSRMHRG as the substance, how does the amyloid nucleation score read?
**A.** 5.2 ± 0.078

**Q.** For SGTDHNRMYF, which amyloid nucleation score is on record?
**A.** 0.312 ± 0.57

**Q.** For PSITPLACHHTRCNW, which amyloid nucleation score is on record?
**A.** -0.881 ± 0.28

**Q.** With RWCGIGRLGVSNGIVPCWEM as the substance, how does the amyloid nucleation score read?
**A.** 0.647 ± 0.17

**Q.** For TVLILPPHTRSDINFMVHYT, which amyloid nucleation score is on record?
**A.** 4.43 ± 0.063

**Q.** For TSLYRVSKM, which amyloid nucleation score is on record?
**A.** -0.945 ± 0.76

**Q.** With VDRIESVSYLYSHDYNESGP as the substance, how does the amyloid nucleation score read?
**A.** -0.212 ± 0.53

**Q.** For FITQVHSYWDSISTVTSDIL, which amyloid nucleation score is on record?
**A.** inactive

**Q.** Which amyloid nucleation score does the source give for FGMNDRRH here?
**A.** -0.381 ± 0.79

**Q.** Which amyloid nucleation score does the source give for LLGGWESHSRRNVWYAAGLC here?
**A.** -0.711 ± 1.1

**Q.** With YNYLCWNRKKGANRTCVSGR as the substance, how does the amyloid nucleation score read?
**A.** -0.502 ± 0.44

**Q.** Which amyloid nucleation score does the source give for PCCRGRRSSLGRAIKGAEAK here?
**A.** 0.009 ± 0.23

**Q.** With GCGGDKKDFVISFWWEKYFR as the substance, how does the amyloid nucleation score read?
**A.** -1.74 ± 0.53

**Q.** With SSKSHLSLLK as the substance, how does the amyloid nucleation score read?
**A.** -0.849 ± 0.4

**Q.** For DVFVRSRGKGRFMGSRDNWA, which amyloid nucleation score is on record?
**A.** 0.76 ± 0.4

**Q.** For MISVVRKPPLIISVIRSRWD, which amyloid nucleation score is on record?
**A.** 0.687 ± 0.47

**Q.** Which amyloid nucleation score does the source give for LGGWLNGKGDPSMTASTSAS here?
**A.** 0.799 ± 0.32

**Q.** For VRCRMFMYVMSDLSFMS, which amyloid nucleation score is on record?
**A.** 3.6 ± 0.047

**Q.** Which amyloid nucleation score does the source give for LAQMQR here?
**A.** -0.169 ± 0.8

**Q.** For NHLGLTDCTFQGLDSG, which amyloid nucleation score is on record?
**A.** -1.09 ± 1.1

**Q.** For FAFWGVSI, which amyloid nucleation score is on record?
**A.** 0.332 ± 0.24

**Q.** For GLLVELWSLLIIRYNLSAYL, which amyloid nucleation score is on record?
**A.** -0.841 ± 0.48

**Q.** Which amyloid nucleation score does the source give for HVKRD here?
**A.** 3.23 ± 0.16

**Q.** Which amyloid nucleation score does the source give for MCTDFQC here?
**A.** 0.475 ± 0.27

**Q.** For RRTVQWVWAVYIV, which amyloid nucleation score is on record?
**A.** -0.803 ± 0.45

**Q.** For FFSNIFIEASVCELGSNANV, which amyloid nucleation score is on record?
**A.** 1.03 ± 0.23

— the supplement of paper PMC12042874
